Values joined by “and” are separate entries in the source; they are usually repeats but may differ in a detail not shown here. Equal entries are not always repeated.
T1: OX40 (UniProt P43489 29-214)
T1 construct: also called O × 40
T1 sequence (looked up): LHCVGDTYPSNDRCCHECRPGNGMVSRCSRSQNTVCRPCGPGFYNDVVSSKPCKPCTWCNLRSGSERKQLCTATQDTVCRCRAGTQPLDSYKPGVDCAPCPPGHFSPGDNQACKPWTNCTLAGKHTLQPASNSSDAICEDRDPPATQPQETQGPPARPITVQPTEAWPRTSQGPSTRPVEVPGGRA


What was measured:
human serum albumin = target: T2, human serum albumin (human, UniProt P02768 25-609); assay: SPR (Biacore 3000), Fab-dsFv captured, antigen injected, 1:1 fit;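 note: capture antibody amine-coupled on chip, 3 min antigen association then 20 min dissociation, antigen titrated, reference flow-cell and buffer blanks subtracted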
T2 construct: also called HSA
Method: (§1) Covalent immobilisation of the capture antibody was achieved by standard amine coupling chemistry.
(§2) Each assay cycle consisted of firstly capturing the Fab-dsFv using a 1 min injection, before an association phase consisting of a 3 min injection of antigen, after which dissociation was monitored for 20 min. After each cycle, the capture surface was regenerated with 2×1 min injections of 40 mM HCl followed by 30 s of 5 mM NaOH. The flow rates used were 10 μl/min for capture, 30 μl/min for association and dissociation phases, and 10 μl/min for regeneration.
(§3) For kinetic assays, a titration of antigen was performed, a blank flow-cell was used for reference subtraction and buffer-blank injections were included to subtract instrument noise and drift.

OX40 = target: T1, OX40; assay: as above
Method: as §1, §2, §3

| Binder | Kd (human serum albumin) | koff (human serum albumin) | kon (human serum albumin) | Kd (OX40) | koff (OX40) | kon (OX40) |
| --- | --- | --- | --- | --- | --- | --- |
| A26Fab-(3xG4S)-dsFv645 (bispecific antibody, 645 Fv disulfide between Cys44 of SEQ ID NO 227 and Cys100 of SEQ ID NO 44 (Kabat); both cysteines are already in the letters, Fab-dsFv: anti-OX40 A26 Fab with the anti-HSA 645 disulfide-stabilised Fv at the C-termini; The asterisk of 'A26-645std*' is not explained; also called A26-645std; A26-645std*) heavy: EVQLVESGGGLVQPGGSLRLSCAASGFTFTNYGIHWIRQAPGKGLEWVASISPSGGLTYYRDSVKGRFTISRDDAKNSPYLQMNSLRAEDTAVYYCATGGEGIFDYWGQGTLVTVSSASTKGPSVFPLAPSSKSTSGGTAALGCLVKDYFPEPVTVSWNSGALTSGVHTFPAVLQSSGLYSLSSVVTVPSSSLGTQTYICNVNHKPSNTKVDKKVEPKSCSGGGGSGGGGSGGGGSEVQLLESGGGLVQPGGSLRLSCAVSGIDLSNYAINWVRQAPGKCLEWIGIIWASGTTFYATWAKGRFTISRDSTTVYLQMNSLRAEDTAVYYCARTVPGYSTAPYFDLWGQGTLVTVSS light: DIQMTQSPSSLSASVGDRVTITCRATQSIYNALAWYQQKPGKAPKLLIYNANTLHTGVPSRFSASGSGTDSTLTISSLQPEDFATYYCQQYYDYPLTFGGGTKVEIKRTVAAPSVFIFPPSDEQLKSGTASVVCLLNNFYPREAKVQWKVDNALQSGNSQESVTEQDSKDSTYSLSSTLTLSKADYEKHKVYACEVTHQGLSSPVTKSFNRGECSGGGGSGGGGSGGGGSDIVMTQSPSSVSASVGDRVTITCQSSPSVWSNFLSWYQQKPGKAPKLLIYEASKLTSGVPSRFKGSGSGTDFTLTISSLQPEDFATYYCGGGYSSISDTTFGCGTKVEIK | 3570 pM and 4110 pM | 0.000461 s⁻¹ and 0.000421 s⁻¹ | 129000 M⁻¹ s⁻¹ and 103000 M⁻¹ s⁻¹ | 328 pM and 330 pM and 463 pM and 460 pM | 0.000149 s⁻¹ and 0.000191 s⁻¹ | 452000 M⁻¹ s⁻¹ and 413000 M⁻¹ s⁻¹ |
| A26-645 Lys107Cys K (bispecific antibody, Surface cysteine mutant of A26-645 in the 645 Fv light domain (Kabat numbering); also called K107C 645 Fv light; mutation 15) heavy: EVQLVESGGGLVQPGGSLRLSCAASGFTFTNYGIHWIRQAPGKGLEWVASISPSGGLTYYRDSVKGRFTISRDDAKNSPYLQMNSLRAEDTAVYYCATGGEGIFDYWGQGTLVTVSSASTKGPSVFPLAPSSKSTSGGTAALGCLVKDYFPEPVTVSWNSGALTSGVHTFPAVLQSSGLYSLSSVVTVPSSSLGTQTYICNVNHKPSNTKVDKKVEPKSCSGGGGSGGGGSGGGGSEVQLLESGGGLVQPGGSLRLSCAVSGIDLSNYAINWVRQAPGKCLEWIGIIWASGTTFYATWAKGRFTISRDSTTVYLQMNSLRAEDTAVYYCARTVPGYSTAPYFDLWGQGTLVTVSS light: DIQMTQSPSSLSASVGDRVTITCRATQSIYNALAWYQQKPGKAPKLLIYNANTLHTGVPSRFSASGSGTDSTLTISSLQPEDFATYYCQQYYDYPLTFGGGTKVEIKRTVAAPSVFIFPPSDEQLKSGTASVVCLLNNFYPREAKVQWKVDNALQSGNSQESVTEQDSKDSTYSLSSTLTLSKADYEKHKVYACEVTHQGLSSPVTKSFNRGECSGGGGSGGGGSGGGGSDIVMTQSPSSVSASVGDRVTITCQSSPSVWSNFLSWYQQKPGKAPKLLIYEASKLTSGVPSRFKGSGSGTDFTLTISSLQPEDFATYYCGGGYSSISDTTFGCGTKVEIC | 2280 pM | 0.000342 s⁻¹ | 150000 M⁻¹ s⁻¹ | 234 pM and 230 pM | 0.00012 s⁻¹ | 515000 M⁻¹ s⁻¹ |
| A26-645 Glu143Cys K (bispecific antibody, Surface cysteine mutant of A26-645 (Kabat numbering); also called E143C CK; mutation 8) heavy: EVQLVESGGGLVQPGGSLRLSCAASGFTFTNYGIHWIRQAPGKGLEWVASISPSGGLTYYRDSVKGRFTISRDDAKNSPYLQMNSLRAEDTAVYYCATGGEGIFDYWGQGTLVTVSSASTKGPSVFPLAPSSKSTSGGTAALGCLVKDYFPEPVTVSWNSGALTSGVHTFPAVLQSSGLYSLSSVVTVPSSSLGTQTYICNVNHKPSNTKVDKKVEPKSCSGGGGSGGGGSGGGGSEVQLLESGGGLVQPGGSLRLSCAVSGIDLSNYAINWVRQAPGKCLEWIGIIWASGTTFYATWAKGRFTISRDSTTVYLQMNSLRAEDTAVYYCARTVPGYSTAPYFDLWGQGTLVTVSS light: DIQMTQSPSSLSASVGDRVTITCRATQSIYNALAWYQQKPGKAPKLLIYNANTLHTGVPSRFSASGSGTDSTLTISSLQPEDFATYYCQQYYDYPLTFGGGTKVEIKRTVAAPSVFIFPPSDEQLKSGTASVVCLLNNFYPRCAKVQWKVDNALQSGNSQESVTEQDSKDSTYSLSSTLTLSKADYEKHKVYACEVTHQGLSSPVTKSFNRGECSGGGGSGGGGSGGGGSDIVMTQSPSSVSASVGDRVTITCQSSPSVWSNFLSWYQQKPGKAPKLLIYEASKLTSGVPSRFKGSGSGTDFTLTISSLQPEDFATYYCGGGYSSISDTTFGCGTKVEIK | 2200 pM | 0.000337 s⁻¹ | 153000 M⁻¹ s⁻¹ | 325 pM and 330 pM | 0.000155 s⁻¹ | 477000 M⁻¹ s⁻¹ |
| A26-645 Cys233Ser H (bispecific antibody, 645 Fv disulfide between Cys44 of SEQ ID NO 227 and Cys100 of SEQ ID NO 44 (Kabat); both cysteines are already in the letters, Control mutant of A26-645 without the heavy chain's interchain cysteine (Kabat numbering); also called C233S CH1; mutation 5) heavy: EVQLVESGGGLVQPGGSLRLSCAASGFTFTNYGIHWIRQAPGKGLEWVASISPSGGLTYYRDSVKGRFTISRDDAKNSPYLQMNSLRAEDTAVYYCATGGEGIFDYWGQGTLVTVSSASTKGPSVFPLAPSSKSTSGGTAALGCLVKDYFPEPVTVSWNSGALTSGVHTFPAVLQSSGLYSLSSVVTVPSSSLGTQTYICNVNHKPSNTKVDKKVEPKSSSGGGGSGGGGSGGGGSEVQLLESGGGLVQPGGSLRLSCAVSGIDLSNYAINWVRQAPGKCLEWIGIIWASGTTFYATWAKGRFTISRDSTTVYLQMNSLRAEDTAVYYCARTVPGYSTAPYFDLWGQGTLVTVSS light: DIQMTQSPSSLSASVGDRVTITCRATQSIYNALAWYQQKPGKAPKLLIYNANTLHTGVPSRFSASGSGTDSTLTISSLQPEDFATYYCQQYYDYPLTFGGGTKVEIKRTVAAPSVFIFPPSDEQLKSGTASVVCLLNNFYPREAKVQWKVDNALQSGNSQESVTEQDSKDSTYSLSSTLTLSKADYEKHKVYACEVTHQGLSSPVTKSFNRGECSGGGGSGGGGSGGGGSDIVMTQSPSSVSASVGDRVTITCQSSPSVWSNFLSWYQQKPGKAPKLLIYEASKLTSGVPSRFKGSGSGTDFTLTISSLQPEDFATYYCGGGYSSISDTTFGCGTKVEIK | 1760 pM | 0.000275 s⁻¹ | 157000 M⁻¹ s⁻¹ | 270 pM | 0.000124 s⁻¹ | 461000 M⁻¹ s⁻¹ |
| A26-645 Cys214Ser K (bispecific antibody, 645 Fv disulfide between Cys44 of SEQ ID NO 227 and Cys100 of SEQ ID NO 44 (Kabat); both cysteines are already in the letters, Control mutant of A26-645 without the light chain's interchain cysteine (Kabat numbering); also called C214S CK; mutation 13) heavy: EVQLVESGGGLVQPGGSLRLSCAASGFTFTNYGIHWIRQAPGKGLEWVASISPSGGLTYYRDSVKGRFTISRDDAKNSPYLQMNSLRAEDTAVYYCATGGEGIFDYWGQGTLVTVSSASTKGPSVFPLAPSSKSTSGGTAALGCLVKDYFPEPVTVSWNSGALTSGVHTFPAVLQSSGLYSLSSVVTVPSSSLGTQTYICNVNHKPSNTKVDKKVEPKSCSGGGGSGGGGSGGGGSEVQLLESGGGLVQPGGSLRLSCAVSGIDLSNYAINWVRQAPGKCLEWIGIIWASGTTFYATWAKGRFTISRDSTTVYLQMNSLRAEDTAVYYCARTVPGYSTAPYFDLWGQGTLVTVSS light: DIQMTQSPSSLSASVGDRVTITCRATQSIYNALAWYQQKPGKAPKLLIYNANTLHTGVPSRFSASGSGTDSTLTISSLQPEDFATYYCQQYYDYPLTFGGGTKVEIKRTVAAPSVFIFPPSDEQLKSGTASVVCLLNNFYPREAKVQWKVDNALQSGNSQESVTEQDSKDSTYSLSSTLTLSKADYEKHKVYACEVTHQGLSSPVTKSFNRGESSGGGGSGGGGSGGGGSDIVMTQSPSSVSASVGDRVTITCQSSPSVWSNFLSWYQQKPGKAPKLLIYEASKLTSGVPSRFKGSGSGTDFTLTISSLQPEDFATYYCGGGYSSISDTTFGCGTKVEIK | 1700 pM | 0.000282 s⁻¹ | 166000 M⁻¹ s⁻¹ | 278 pM and 280 pM | 0.000122 s⁻¹ | 437000 M⁻¹ s⁻¹ |
| A26-645 Lys145Cys K (bispecific antibody, Surface cysteine mutant of A26-645 (Kabat numbering); also called K145C CK; mutation 9) heavy: EVQLVESGGGLVQPGGSLRLSCAASGFTFTNYGIHWIRQAPGKGLEWVASISPSGGLTYYRDSVKGRFTISRDDAKNSPYLQMNSLRAEDTAVYYCATGGEGIFDYWGQGTLVTVSSASTKGPSVFPLAPSSKSTSGGTAALGCLVKDYFPEPVTVSWNSGALTSGVHTFPAVLQSSGLYSLSSVVTVPSSSLGTQTYICNVNHKPSNTKVDKKVEPKSCSGGGGSGGGGSGGGGSEVQLLESGGGLVQPGGSLRLSCAVSGIDLSNYAINWVRQAPGKCLEWIGIIWASGTTFYATWAKGRFTISRDSTTVYLQMNSLRAEDTAVYYCARTVPGYSTAPYFDLWGQGTLVTVSS light: DIQMTQSPSSLSASVGDRVTITCRATQSIYNALAWYQQKPGKAPKLLIYNANTLHTGVPSRFSASGSGTDSTLTISSLQPEDFATYYCQQYYDYPLTFGGGTKVEIKRTVAAPSVFIFPPSDEQLKSGTASVVCLLNNFYPREACVQWKVDNALQSGNSQESVTEQDSKDSTYSLSSTLTLSKADYEKHKVYACEVTHQGLSSPVTKSFNRGECSGGGGSGGGGSGGGGSDIVMTQSPSSVSASVGDRVTITCQSSPSVWSNFLSWYQQKPGKAPKLLIYEASKLTSGVPSRFKGSGSGTDFTLTISSLQPEDFATYYCGGGYSSISDTTFGCGTKVEIK | 1890 pM | 0.000259 s⁻¹ | 137000 M⁻¹ s⁻¹ | 241 pM and 240 pM | 0.00011 s⁻¹ | 457000 M⁻¹ s⁻¹ |
| A26-645 Asn210Cys K (bispecific antibody, 645 Fv disulfide between Cys44 of SEQ ID NO 227 and Cys100 of SEQ ID NO 44 (Kabat); both cysteines are already in the letters, Surface cysteine mutant of A26-645 (Kabat numbering); also called N210C CK; mutation 12) heavy: EVQLVESGGGLVQPGGSLRLSCAASGFTFTNYGIHWIRQAPGKGLEWVASISPSGGLTYYRDSVKGRFTISRDDAKNSPYLQMNSLRAEDTAVYYCATGGEGIFDYWGQGTLVTVSSASTKGPSVFPLAPSSKSTSGGTAALGCLVKDYFPEPVTVSWNSGALTSGVHTFPAVLQSSGLYSLSSVVTVPSSSLGTQTYICNVNHKPSNTKVDKKVEPKSCSGGGGSGGGGSGGGGSEVQLLESGGGLVQPGGSLRLSCAVSGIDLSNYAINWVRQAPGKCLEWIGIIWASGTTFYATWAKGRFTISRDSTTVYLQMNSLRAEDTAVYYCARTVPGYSTAPYFDLWGQGTLVTVSS light: DIQMTQSPSSLSASVGDRVTITCRATQSIYNALAWYQQKPGKAPKLLIYNANTLHTGVPSRFSASGSGTDSTLTISSLQPEDFATYYCQQYYDYPLTFGGGTKVEIKRTVAAPSVFIFPPSDEQLKSGTASVVCLLNNFYPREAKVQWKVDNALQSGNSQESVTEQDSKDSTYSLSSTLTLSKADYEKHKVYACEVTHQGLSSPVTKSFCRGECSGGGGSGGGGSGGGGSDIVMTQSPSSVSASVGDRVTITCQSSPSVWSNFLSWYQQKPGKAPKLLIYEASKLTSGVPSRFKGSGSGTDFTLTISSLQPEDFATYYCGGGYSSISDTTFGCGTKVEIK | 1600 pM | 0.000284 s⁻¹ | 178000 M⁻¹ s⁻¹ | 229 pM and 230 pM | 0.000111 s⁻¹ | 483000 M⁻¹ s⁻¹ |

Reference: patent US20130066054A1 (UCB, published 2013)
